Test results as given in article PMC4935801, “The Arabidopsis Golgi-localized GDP-L-fucose transporter is required for plant development” (Nature Communications, 2016).

B1: GONST1 (Arabidopsis thaliana) (protein)
chain: MKLYEHDGVDLEDGKTVKSGGDKPIPRKIHNRALLSGLAYCISSCSMILVNKFVLSSYNFNAGIFLMLYQNFVSVIIVVGLSLMGLITTEPLTLRLMKVWFPVNVIFVGMLITSMFSLKYINVAMVTVLKNVTNVITAVGEMYLFNKQHDNRVWAALFLMIISAVSGGITDLSFNAVGYAWQIANCFLTASYSLTLRKTMDTAKQVTQSGNLNEFSMVLLNNTLSLPLGLLLSYFFNEMDYLYQTPLLRLPSFWMVMTLSGLLGLAISFTSMWFLHQTGATTYSLVGSLNKIPLSIAGIVLFNVPTSLQNSASILFGLVAGVVFARAKMREKS
notes: yeast microsomal protein reconstituted into liposomes
B2: GFT1 (Arabidopsis thaliana) (protein)
chain: MSSSRFDSNKQLTTSSLVIGYALCSSLLAVINKLAITYFNYPGLLTALQYLTCTVAVYLLGKSGLINHDPFTWDTAKKFLPAAIVFYLAIFTNTNLLRHANVDTFIVFRSLTPLLVAIADTVFRSQPLPSRLTFLSLVVILAGAVGYVATDSSFTLTAYSWALAYLVTITTEMVYIKHMVSNIKLNIWGLVLYNNLLSLMIAPVFWFLTGEFTEVFAALSENRGNLFEPYAFSSVAASCVFGFLISYFGFAARNAISATAFTVTGVVNKFLTVVINVLIWDKHATPVGLVCLLFTICGGVGYQQSVKLDKPIEKVSEKDSEKGEEDEELTQLVPGKLASVV
notes: as for B1

What was measured:
Assay in all cases: proteo-liposome transport assay, LC-MS/MS
Assay type in all cases: biochemical, Arabidopsis thaliana
Conditions in all cases: apparent Km, proteo-liposomes pre-loaded with 10 mM GMP, 0.5–400 μM substrate, 25 °C, pH 7.5, mean (s.e.m.) n=4
[1] = substrate: C[C@@H]1O[C@H](OP(=O)(O)OP(=O)(O)OC[C@H]2O[C@@H](n3cnc4c(=O)[nH]c(N)nc43)[C@H](O)[C@@H]2O)[C@@H](O)[C@H](O)[C@@H]1O
Description: (§1) proteo-liposome transport assay, LC-MS/MS on GONST1

[2] = substrate: Nc1nc2c(ncn2[C@@H]2O[C@H](COP(=O)(O)OP(=O)(O)O[C@H]3O[C@H](CO)[C@@H](O)[C@H](O)[C@@H]3O)[C@@H](O)[C@H]2O)c(=O)[nH]1
Description: as §1

[3] = substrate: C[C@@H]1O[C@H](OP(=O)(O)OP(=O)(O)OC[C@H]2O[C@@H](n3cnc4c(=O)[nH]c(N)nc43)[C@H](O)[C@@H]2O)[C@@H](O)[C@H](O)[C@@H]1O; remark: listed apart in the source
Description: proteo-liposome transport assay, LC-MS/MS on GFT1

Protein | Km [1] | Vmax [1] | kcat [1] | Km [2] | Vmax [2] | kcat [2] | Km [3] | Vmax [3] | kcat [3]
B1 | 76 (5) μM | 0.84 µM/min | 0.7 s⁻¹ | 17 (3) μM | 1.44 µM/min | 1.2 s⁻¹ |  |  | 
B2 |  |  |  |  |  |  | 7 (1) μM | 3.24 µM/min | 4 s⁻¹
